Measurements taken from the supplement of paper PMC9732359.
± gives the uncertainty stated by the source.

Experiment: protein stability index of a GFP-peptide fusion (yeast GPS) (PSI 1-4); higher = more stable; sorted into four equal gates, so the index is relative within each strain
How it was run: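 Tiled 17-residue yeast protein peptides were fused downstream of GFP in a plasmid that also expresses Cherry, and the pooled library was carried in yeast. Mid-log cultures in leucine-free medium were sorted into four equal gates by GFP/Cherry fluorescence ratio, and plasmids from each gate were PCR-amplified and Illumina-sequenced, with reads assigned to strains by barcodes. The protein stability index for each peptide was each gate's read frequency times its gate number, summed.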

| Sequence | protein stability index (doa10∆) | protein stability index (pdr5∆) | protein stability index (san1∆) | protein stability index (ubr1∆) |
| --- | --- | --- | --- | --- |
| TAFKSSPFGGSSHAKGI [RPS23A] | 3.02 ± 0.067 | 2.61 ± 0.053 | 3.02 ± 0.048 | 2.29 ± 0.04 |
| FGSKPTGATSLFGSSNN [YGL172W/NUP49] | 3.39 ± 0.11 | 3.59 ± 0.11 | 3.54 ± 0.044 | 3.64 ± 0.1 |
| MTMLTPNYLHLVSSYLN [YML103C/NUP188] | 1.82 ± 0.039 | 1.66 ± 0.035 | 1.69 ± 0.051 | 1.4 ± 0.032 |
| FPRSRSRSRSSIRSISP [ESC2] | 2.86 ± 0.2 | 3.18 ± 0.13 | 3.03 ± 0.09 | 3.34 ± 0.19 |
| KVSSASAAASESDVAKQ [RPL16B] | 2.93 ± 0.067 | 2.79 ± 0.055 | 2.04 ± 0.09 | 2.97 ± 0.065 |
| FKNDFNSFYYTSLLYLS [RPN9] | 1.33 ± 0.049 | 1.81 ± 0.073 | 2.19 ± 0.11 | 1.25 ± 0.099 |
| ALVFAALEHLKNLSLLA [SRP68] | 2.79 ± 0.12 | 2.75 ± 0.14 | 3.07 ± 0.065 | 2.92 ± 0.096 |
| QIIFGVVEKKTVGSSNG [RPO21] | 1.66 ± 0.11 | 1.66 ± 0.098 | 1.66 ± 0.19 | 1.6 ± 0.066 |
| AAAAPAPVAAAAPAAAA [FAS2] |  | 1.62 ± 0.27 |  |  |
| TAIAHSIREQVHMYHKS [SNF5] | 1.89 ± 0.044 | 1.92 ± 0.047 | 2.23 ± 0.069 | 2.12 ± 0.044 |
| KNAAESSYMGKHWTEKS [PRP28] | 3.17 ± 0.12 | 3.24 ± 0.17 |  | 3.46 ± 0.11 |
| DVEDDDKETQLKKRAVS [POP7] | 2.85 ± 0.18 | 2.94 ± 0.096 | 2.41 ± 0.16 | 2.5 ± 0.21 |
| TFSWLNAELLDYLFHLL [YLR018C/POM34] | 1.64 ± 0.075 | 1.47 ± 0.039 | 1.46 ± 0.14 | 1.4 ± 0.044 |
| VEPVTERTKLQEHTIFT [SNU114] | 2.2 ± 0.2 | 2.35 ± 0.074 | 1.8 ± 0.21 |  |
| MGDNSQLDFTEFDEQYG [SNF2] | 3.31 ± 0.057 | 3.15 ± 0.067 | 3.31 ± 0.052 | 3.14 ± 0.045 |
| NGFAPISEVMEDRNQRI [FAS1] | 3.44 ± 0.093 | 3.3 ± 0.06 | 3.42 ± 0.05 | 3.31 ± 0.038 |
| NVTMIDDLIHFTLKQWN [COR1] | 2.49 ± 0.14 | 2.89 ± 0.16 | 2.79 ± 0.081 | 2.74 ± 0.099 |
| NFPVRQWSIEIVLLDDE [TAF14] | 1.57 ± 0.07 | 1.5 ± 0.055 | 2.37 ± 0.093 | 2.19 ± 0.059 |
| NAAVAGVANTDTAGEES [SWI3] | 3.06 ± 0.061 | 3.27 ± 0.062 | 3 ± 0.046 | 3.15 ± 0.056 |
| RNTMMIQCQIDKLYIHF [RGR1] | 1.98 ± 0.051 | 2.15 ± 0.061 | 2.08 ± 0.069 | 2.19 ± 0.041 |
| EDETVKVAQLRQTGPAK [NSL1] | 3.1 ± 0.16 | 2.83 ± 0.17 | 3.08 ± 0.19 | 3.67 ± 0.11 |
| TRQSSRNFDTHENYIQD [MCD1] | 2.92 ± 0.098 | 3.03 ± 0.082 | 2.84 ± 0.08 | 2.69 ± 0.056 |
| SGELLQGIVRVYSKQAT [MCD1] | 1.82 ± 0.047 | 2.17 ± 0.056 | 2.22 ± 0.058 | 1.76 ± 0.049 |
| ERGFACIPLVGISVPFH [FAS1] | 1.34 ± 0.06 | 1.32 ± 0.07 | 1.22 ± 0.12 | 1.21 ± 0.061 |
| IPTLAIDSVEVETNTTV [RPB3] | 2.82 ± 0.22 | 2.44 ± 0.16 | 2.94 ± 0.083 | 2.98 ± 0.059 |
| APSGIRMHLAPASKQGY [SSN2] | 2.24 ± 0.17 | 2.48 ± 0.11 | 2.22 ± 0.13 | 2.36 ± 0.097 |
| QDIKKAKRVENFNSSAP [DSN1] | 3.31 ± 0.1 | 3.44 ± 0.085 | 3.02 ± 0.16 | 3.42 ± 0.06 |

| Sequence | protein stability index (doa10∆) | protein stability index (pdr5∆) | protein stability index (san1∆) | protein stability index (ubr1∆) |
| --- | --- | --- | --- | --- |
| NLPEHIVPGTYIQERNP [RPS10A] | 2.64 ± 0.069 | 2.62 ± 0.068 | 2.7 ± 0.047 | 2.68 ± 0.045 |
| MEYLSGGEKTVAALALL [SMC1] | 2.2 ± 0.15 | 2.41 ± 0.11 | 1.68 ± 0.19 | 2.3 ± 0.13 |
| RRLDALVEKVYARFKND [ITC1] | 3.29 ± 0.16 | 1.93 ± 0.083 | 2.69 ± 0.078 | 2.29 ± 0.097 |
| SHTSLVKIGKFIPHGLK [SRB8] | 1.71 ± 0.053 | 1.73 ± 0.045 | 1.97 ± 0.084 | 1.55 ± 0.054 |
| SLEMVPKDTSAATMTSA [RGR1] | 2.47 ± 0.11 | 2.77 ± 0.12 | 2.73 ± 0.088 | 2.93 ± 0.088 |
| FNSVVNLSRYPKSGIDI [MTR3] | 2.66 ± 0.055 | 2.96 ± 0.086 | 2.82 ± 0.079 | 3.03 ± 0.075 |
| TGKIVDVVGTLSRNGKP [FAS1] | 3.33 ± 0.15 | 3.6 ± 0.13 | 3.48 ± 0.094 | 3.44 ± 0.071 |
| EDYAIVTKGGTVENPLR [PRP28] | 3.47 ± 0.16 | 2.98 ± 0.099 | 3.39 ± 0.055 | 3.44 ± 0.078 |
| QDRQQLLPLVVSNISCL [ECM29] | 1.38 ± 0.046 | 1.38 ± 0.036 | 1.29 ± 0.074 | 1.29 ± 0.034 |
| IKNLGLPSDRCSKAMGD [RPP1] | 3.36 ± 0.19 | 3.32 ± 0.13 | 3.25 ± 0.23 |  |
| PENITKREASRGFFDIL [MCD1] | 3.1 ± 0.08 | 3.01 ± 0.082 | 3.13 ± 0.062 | 3.21 ± 0.058 |
| RITNSFYSTNSQYFKFK [RPN9] | 2.5 ± 0.1 | 2.38 ± 0.076 | 2.42 ± 0.086 | 2.83 ± 0.16 |
| NRTVLLKIFKIFCIDLE [SRB8] | 1.94 ± 0.094 | 2.15 ± 0.089 | 1.89 ± 0.13 | 2.3 ± 0.071 |
| LAEEKIRAAGGVVELIA [RPL28] | 2.919 ± 0.025 | 3.072 ± 0.024 | 2.935 ± 0.023 | 2.931 ± 0.02 |
| NDNIGANRSRFNNEAPP [SMB1] | 2.64 ± 0.076 | 3.02 ± 0.047 | 2.54 ± 0.065 | 3.01 ± 0.067 |
| EQILQWVTEVLGNDIPH [BRR2] | 3.07 ± 0.07 | 3.31 ± 0.063 | 2.88 ± 0.047 | 3.19 ± 0.058 |
| THPHAADGSSYMEQGNN [SKI6] | 3.05 ± 0.073 | 3.2 ± 0.063 | 3.02 ± 0.052 | 3.07 ± 0.047 |
| RLFIKPGQKMSLFSHRK [BRN1] | 2.74 ± 0.14 | 3.06 ± 0.11 | 3.07 ± 0.13 | 3.02 ± 0.12 |
| TWYVGNSRGKFDDACNQ [SSN2] | 3.43 ± 0.19 | 3.14 ± 0.12 | 2.9 ± 0.11 | 3.26 ± 0.16 |
| VADEEANIELTWAEGTF [RPC37] | 2.06 ± 0.067 | 2.98 ± 0.087 | 1.81 ± 0.097 | 2.52 ± 0.071 |
| PVLFNRQPSLHKMSMMA [RPO21] | 2.54 ± 0.11 | 2.95 ± 0.093 | 3.05 ± 0.23 | 2.23 ± 0.16 |
| ESLTNSNMFDNSADVDM [YGL100W/SEH1] | 3.34 ± 0.085 | 3.57 ± 0.086 | 3.48 ± 0.056 | 3.36 ± 0.093 |
| GKRIAYVYRASKEVRGS [RPL33A] | 2.8 ± 0.063 | 2.57 ± 0.08 | 2.43 ± 0.064 | 2.73 ± 0.047 |
| GKIRGVEDDLVTVQTEL [SMC2] | 3.1 ± 0.12 | 2.62 ± 0.068 | 2.48 ± 0.077 | 2.85 ± 0.076 |
| SLQDSIIKQENFNSVND [SSN2] | 2.4 ± 0.11 | 1.83 ± 0.073 | 2.48 ± 0.078 | 2.73 ± 0.098 |
| VAAAGITASTLLYADSL [CYT1] | 1.89 ± 0.068 | 2.12 ± 0.078 | 1.75 ± 0.14 | 1.93 ± 0.078 |
| VVDHHVENELLQVDVDI [RRP42] | 3.4 ± 0.13 | 3.25 ± 0.21 | 2.83 ± 0.17 |  |
